pKd: −log10 of the molar value.

Assay [1] addresses cHSP27, isolated α-crystallin domain of HSP27 (residues 84-171), oxidized disulfide-linked dimer (human) (UniProt P04792). The assay can be described thus: NMR titration + other: NMR CPMG relaxation dispersion.
For assay [2] the target is unchanged. The experiment in a line: NMR titration.
For assay [3] the target is unchanged. The experiment in a line: NMR CPMG relaxation dispersion.

Chain of cHSP27, isolated α-crystallin domain of HSP27 (residues 84-171), oxidized disulfide-linked dimer (human) (P04792 84-171): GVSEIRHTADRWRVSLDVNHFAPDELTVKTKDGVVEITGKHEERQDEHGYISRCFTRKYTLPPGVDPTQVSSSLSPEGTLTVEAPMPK
Chain of C-terminal peptide of HSP27 bearing the P182L mutation (ILV motif) (P04792 whole entry P182L, looked up, tested part not stated): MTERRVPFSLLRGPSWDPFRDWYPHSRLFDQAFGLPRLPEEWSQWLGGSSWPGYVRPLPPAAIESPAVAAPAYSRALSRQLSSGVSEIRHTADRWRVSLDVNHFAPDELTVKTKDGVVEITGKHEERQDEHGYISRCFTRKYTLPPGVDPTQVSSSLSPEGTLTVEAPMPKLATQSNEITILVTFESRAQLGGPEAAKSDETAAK
Chain of C-terminal peptide of HSP27 containing the WT IxI/V (IPV) motif (P04792 whole entry, looked up, tested part not stated): as the sequence (P04792 whole entry P182L, looked up, tested part not stated) above, with L182P counted along it

With “C-terminal peptide of HSP27 bearing the P182L mutation (ILV motif) (from UniProt P04792 179-186)”, the fold difference of kon (from CSP Kd and CPMG koff) against the WT peptide in assay [1] was determined as 10 fold. The same substance showed a pKd in assay [2] of 2.92. In addition, in assay [3], the pKd was 1.99, the koff was determined as 840 s⁻¹ and the kon stood at 82600 M⁻¹ s⁻¹.

“C-terminal peptide of HSP27 containing the WT IxI/V (IPV) motif (from UniProt P04792 179-186)” had a pKd in assay [2] of 3.90. In assay [3], this substance gave a pKd of 2.60, a koff of 759 s⁻¹ and a kon of 302000 M⁻¹ s⁻¹.

As usually defined, the pKd is the Kd on a negative log10 scale, so that one unit is a factor of ten. A lower pKd goes with a high Kd. What is called koff is a measure of how fast the partners let go of each other. As a reminder, the kon is the second-order rate constant of association. High values mean faster complex formation, low ones slower complex formation.

Source of the values: article doi:10.1101/708180.
